In patent publication US20120258109A1 (Eli Lilly, published 2012):

Key:
Human TGF-alpha = Human TGF-alpha (human, UniProt P01135 40-89); experiment: cell-based or functional assay
Rat TGF-alpha [1] = biological target: T1, Rat TGF-alpha (rat, UniProt P01134 39-88); experiment: cell-based or functional assay
Met-human Epiregulin [2] = biological target: T2, Met-human Epiregulin (human, UniProt O14944 63-108); experiment: cell-based or functional assay
Mouse Epiregulin [3] = biological target: T3, Mouse Epiregulin (mouse, UniProt Q61521 56-101); experiment: cell-based or functional assay
Mouse Epiregulin [4] = biological target: T3, Mouse Epiregulin; experiment: SPR (Biacore), antibody captured on the chip, ligand in solution, 25 C
Protocol: (§1) Biacore T2000 instrument (BIAcore® AB, Upsala, Sweden), reagents and Biacore T2000 Evaluation Software Ver 4.1 are used for the Surface Plasmon Resonance analysis. A CM5 chip is prepared using manufacturer's EDC/NHS amine coupling method. The surfaces of all four flow cells are activated by injecting a 1:1 mixture of EDC/NHS for 7 minutes at 10 μL/min. Goat anti-human Fc γ specific antibody is diluted to 50 μg/ml in 10 mM acetate, pH 4.0 buffer and immobilized for approximately 10000 RU onto all four flow cells by 7 minute injection at a flow rate of 10 μL/min. Un-reacted sites are blocked with a 7 minute injection of ethanolamine at 10 μL/min. Injections of 3×20 seconds of glycine pH 1.5 at 30 μL/min are used to remove non-covalently associated protein. The running buffer is HBS-EP [10 mM HEPES, 150 mM Sodium Chloride, 3 mM EDTA, 0.005% Polysorbate 20].
(§2) Duplicate injections of each ligand concentration are injected at 30 μL/min for 300 seconds followed by a dissociation phase. […] Regeneration is performed by injecting 10 mM glycine pH 1.5 for 30 seconds at 30 μL/min over all flowcell.
(§3) Reference-subtracted data are collected as Fc2−Fc1. The measurements are obtained at 25° C. The on-rate (kₒₙ) and off-rate (koff) for each ligand are evaluated using a “1:1 (Langmuir) Binding” binding model. The affinity (KD) is calculated from the binding kinetics according to the relationship: KD=koff/kₒₙ.

Mouse TGF-alpha = Mouse TGF-alpha (mouse, UniProt P48030 39-88, limits assumed); experiment: as above
Protocol: as §1, §2, §3

Human Epigen = Human Epigen (human, UniProt Q6UW88 24-104, limits assumed); experiment: cell-based or functional assay
Rat TGF-alpha [5] = biological target: T1, Rat TGF-alpha; experiment: SPR (Biacore), antibody captured by anti-human Fc, ligand in solution, 25 C
Protocol: as §1
(§4) Duplicate injections of each ligand concentration are injected at 30 μL/min for 300 seconds followed by a dissociation phase. […] Regeneration is performed by injecting 10 mM glycine pH 1.5 for 3×20 seconds at 30 μL/min over all flowcell.
as §3

Met-human Epiregulin [6] = biological target: T2, Met-human Epiregulin; experiment: as above
Protocol: as §1, §4, §3

Cynomolgus Epiregulin = Cynomolgus Epiregulin (cynomolgus, UniProt O14944 63-108 (human entry), limits assumed); experiment: as above
Protocol: as §1, §4, §3

Mouse Epiregulin [7] = biological target: T3, Mouse Epiregulin; experiment: as above
Protocol: as §1, §4, §3

IC50 (nM), MFc7 proliferation assay (BrDU) (Human TGF-alpha) [nM]	IC50 (nM), MFc7 proliferation assay (BrDU), ligand at 0.5 nM (Rat TGF-alpha [1]) [nM]	IC50 (nM), MFc7 proliferation assay (BrDU) (Met-human Epiregulin [2]) [nM]	IC50 (nM), MFc7 proliferation assay (BrDU), ligand at 0.5 nM (Mouse Epiregulin [3]) [nM]	Kd (Mouse Epiregulin [4]) [nM]	koff (Mouse Epiregulin [4]) [s⁻¹]	kon (Mouse Epiregulin [4]) [M⁻¹ s⁻¹]	Kd (Mouse TGF-alpha) [nM]	koff (Mouse TGF-alpha) [s⁻¹]	kon (Mouse TGF-alpha) [M⁻¹ s⁻¹]	IC50 (nM), MFc7 proliferation assay (BrDU), ligand at 0.5 nM (Met-human Epiregulin [2]) [nM]	IC50 (nM), MFc7 proliferation assay (BrDU), ligand at 100 nM (Human Epigen) [nM]	Kd (Rat TGF-alpha [5]) [nM]	Kd (Met-human Epiregulin [6]) [nM]	Kd (Cynomolgus Epiregulin) [nM]	Kd (Mouse Epiregulin [7]) [nM]	Binder
0.52	0.13	1.12	214	215	0.0141	65500	0.038	2.02e-05	541000	–	–	–	–	–	–	Antibody III (antibody, mouse IgG1, kappa, V domains shown, same six CDRs as Antibody I) VH: QVQLQQSGPELVKPGASVKISCKASGYTFTDAYINWVKQRPGQGLEWIGWIWPGPVITYYNPKFKGKATLTVDKSSSTAYMLLSSLTSEDSAFYFCARREVLSPFAYWGQGTLVTVSA VL: DVLMTQTPLSLPVSLGDQASISCRSSQSIVHSTGNTYLEWYLQKPGQSPKLLIYKVSNRFSGVPDRFSGSGSGTDFTLKISRVEAEDLGVYYCFHGTHVPYTFGGGTKLEIKR
–	0.19	–	334	–	–	–	–	–	–	3.15	807	0.0705	1.29	1.05	342	Antibody I (antibody, human IgG4 S228P, kappa, F234A L235A, V domains shown) VH: QVQLVQSGAEVKKPGSSVKVSCKASGYTFTDAYINWVRQAPGQGLEWMGWIWPGPVITYYNPKFKGRVTITADKSTSTAYMELSSLRSEDTAVYYCARREVLSPFAYWGQGTTVTVSS VL: DIVMTQSPDSLAVSLGERATINCRSSQSIVHSTGNTYLEWYQQKPGQPPKLLIYKVSNRFSGVPDRFSGSGSGTDFTLTISSLQAEDVAVYYCFHGTHVPYTFGGGTKVEIKR
